# T1: cell surface CD200 (human, UniProt P41217 31-278)
# T1 construct: whole, on cells; also called CD200 on CD200 expressing Raji cells; CD200+ Raji cells
# T1 sequence (looked up): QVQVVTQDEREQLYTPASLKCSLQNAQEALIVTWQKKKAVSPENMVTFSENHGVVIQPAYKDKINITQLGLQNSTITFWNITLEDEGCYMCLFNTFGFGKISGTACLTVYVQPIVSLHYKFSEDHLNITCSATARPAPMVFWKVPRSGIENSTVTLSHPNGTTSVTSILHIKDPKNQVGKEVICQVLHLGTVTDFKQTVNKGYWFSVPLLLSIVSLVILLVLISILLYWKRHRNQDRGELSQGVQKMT
# B1: TPP-101 (Fab, V domains shown)
# VH: QVQLQQSGSELKKPGASVKISCKASGYSFTDYIILWVRQNPGKGLEWIGHIDPYYGSSNYNLKFKGRVTITADQSTTTAYMELSSLRSEDTAVYYCGRSKRDYFDYWGQGTTLTVSS
# VL: DIQMTQSPSSLSASIGDRVTITCKASQDINSYLSWFQQKPGKAPKLLIYRANRLVDGVPSRFSGSGSGTDYTLTISSLQPEDFAVYYCLQYDEFPYTFGGGTKLEIK
# B2: TPP-709 (Fab, V domains shown)
# VH: QVQLVQSGAEVKKPGASVKVSCKASGYSFTDYIILWVRQAPGQRLEWMGHIDPYYGSSNYNLKFKGRVTITRDTSASTAYMELSSLRSEDTAVYYCGRSKRDYFDYWGQGTLVTVSS
# VL: DIQMTQSPSSLSASVGDRVTITCKASQDINSYLSWFQQKPGKAPKSLIYRANRLVDGVPSRFSGSGSGTDFTLTISSLQPEDFGTYYCLQYDEFPYTFGQGTKLEIK
# B3: TPP-751 (Fab, V domains shown)
# VH: QVQLVQSGAEVKKPGASVKVSCKASGYSFTDYIILWVRQAPGQRLEWMGHIDPYYGSSNYNLKFKGRVTITRDTSASTAYMELSSLRSEDTAVYYCGRSKRDYFDYWGQGTLVTVSS
# VL: DIQMTQSPSSLSASVGDRVTITCKASQDINSYLSWFQQKPGKAPKSLIYRANRLVDGVPSRFSGSGSGTDFTLTISSLQPEDFATYYCLQYDEFPYTFGQGTKLEIK
# B4: TPP-741 (Fab, V domains shown)
# VH: QVQLVQSGAEVKKPGASVKVSCKASGYSFTDYIILWVRQAPGQRLEWIGHIDPYYGSSNYNLKFKGRVTITRDTSASTAYMELSSLRSEDTAVYYCARSKRDYFDYWGQGTLVTVSS
# VL: DIQMTQSPSSLSASVGDRVTITCKASQDINSYLSWFQQKPGKAPKSLIYRANRLVDGVPSRFSGSGSGTDFTLTISSLQPEDFATYYCLQYDEFPYTFGQGTKLEIK
# B5: TPP-100 (Fab, V domains shown)
# VH: EVQLQQSGPELVKPGASLKMSCKASGYSFTDYIILWVKQNHGKSLEWIGHIDPYYGSSNYNLKFKGKATLTVDKSSSTAYMQLNSLTSEDSAVYYCGRSKRDYFDYWGQGTTLTVSS
# VL: DIQMTQSPSSMYASLGERVTITCKASQDINSYLSWFQQKPGKSPKTLIYRANRLVDGVPSRFSGSGSGQDYSLTISSLEYEDMGIYYCLQYDEFPYTFGGGTKLEIK
# B6: TPP-103 (Fab, V domains shown)
# VH: QVQLVQSGAEVKKPGASVKVSCKASGYSFTDYIILWVRQAPGQGLEWMGHIDPYYGSSNYNLKFKGRVTMTRDTSTSTVYMELSSLRSEDTAVYYCARSKRDYFDYWGQGTLVTVSS
# VL: DIQMTQSPSSLSASVGDRVTITCKASQDINSYLSWFQQKPGKAPKSLIYRANRLVDGVPSRFSGSGSGTDFTLTISSLQPEDFATYYCLQYDEFPYTFGQGTKLEIK
# B7: TPP-123 (Fab, V domains shown)
# VH: QVQLVQSGAEVKKPGASVKVSCKASGYSFTDYIILWVRQATGQGLEWMGHIDPYYGSSNYNLKFKGRVTMTRNTSISTAYMELSSLRSEDTAVYYCARSKRDYFDYWGQGTLVTVSS
# VL: DIQMTQSPSSLSASVGDRVTITCKASQDINSYLSWFQQKPGKAPKSLIYRANRLVDGVPSRFSGSGSGTDFTLTISSLQPEDFATYYCLQYDEFPYTFGQGTKLEIK
# B8: TPP-131 (Fab, V domains shown)
# VH: QMQLVQSGAEVKKTGSSVKVSCKASGYSFTDYIILWVRQAPGQALEWMGHIDPYYGSSNYNLKFKGRVTITRDRSMSTAYMELSSLRSEDTAMYYCARSKRDYFDYWGQGTLVTVSS
# VL: DIQMTQSPSSLSASVGDRVTITCKASQDINSYLSWFQQKPGKAPKSLIYRANRLVDGVPSRFSGSGSGTDFTLTISSLQPEDFATYYCLQYDEFPYTFGQGTKLEIK
# B9: TPP-115 (Fab, V domains shown)
# VH: QVQLVQSGAEVKKPGASVKVSCKASGYSFTDYIILWVRQAPGQGLEWMGHIDPYYGSSNYNLKFKGRVTMTRDTSISTAYMELSRLRSDDTAVYYCARSKRDYFDYWGQGTLVTVSS
# VL: DIQMTQSPSSLSASVGDRVTITCKASQDINSYLSWFQQKPGKAPKSLIYRANRLVDGVPSRFSGSGSGTDFTLTISSLQPEDFATYYCLQYDEFPYTFGQGTKLEIK
# B10: TPP-107 (Fab, V domains shown)
# VH: QVQLVQSGAEVKKPGSSVKVSCKASGYSFTDYIILWVRQAPGQGLEWMGHIDPYYGSSNYNLKFKGRVTITADESTSTAYMELSSLRSEDTAVYYCARSKRDYFDYWGQGTLVTVSS
# VL: DIQMTQSPSSLSASVGDRVTITCKASQDINSYLSWFQQKPGKAPKSLIYRANRLVDGVPSRFSGSGSGTDFTLTISSLQPEDFATYYCLQYDEFPYTFGQGTKLEIK
# B11: TPP-139 (Fab, V domains shown)
# VH: QVQLVQSGSELKKPGASVKVSCKASGYSFTDYIILWVRQAPGQGLEWMGHIDPYYGSSNYNLKFKGRFVFSLDTSVSTAYLQISSLKAEDTAVYYCARSKRDYFDYWGQGTLVTVSS
# VL: DIQMTQSPSSLSASVGDRVTITCKASQDINSYLSWFQQKPGKAPKSLIYRANRLVDGVPSRFSGSGSGTDFTLTISSLQPEDFATYYCLQYDEFPYTFGQGTKLEIK
# B12: TPP-135 (Fab, V domains shown)
# VH: QMQLVQSGPEVKKPGTSVKVSCKASGYSFTDYIILWVRQARGQRLEWIGHIDPYYGSSNYNLKFKGRVTITRDMSTSTAYMELSSLRSEDTAVYYCAASKRDYFDYWGQGTLVTVSS
# VL: DIQMTQSPSSLSASVGDRVTITCKASQDINSYLSWFQQKPGKAPKSLIYRANRLVDGVPSRFSGSGSGTDFTLTISSLQPEDFATYYCLQYDEFPYTFGQGTKLEIK
# B13: TPP-111 (Fab, V domains shown)
# VH: QVQLVQSGAEVKKPGASVKVSCKASGYSFTDYIILWVRQAPGQGLEWMGHIDPYYGSSNYNLKFKGRVTMTTDTSTSTAYMELRSLRSDDTAVYYCARSKRDYFDYWGQGTLVTVSS
# VL: DIQMTQSPSSLSASVGDRVTITCKASQDINSYLSWFQQKPGKAPKSLIYRANRLVDGVPSRFSGSGSGTDFTLTISSLQPEDFATYYCLQYDEFPYTFGQGTKLEIK
# B14: samalizumab (antibody, human IgG2, kappa, V domains shown)
# VH: QVQLQQSGSELKKPGASVKISCKASGYSFTDYIILWVRQNPGKGLEWIGHIDPYYGSSNYNLKFKGRVTITADQSTTTAYMELSSLRSEDTAVYYCGRSKRDYFDYWGQGTTLTVSS
# VL: DIQMTQSPSSLSASIGDRVTITCKASQDINSYLSWFQQKPGKAPKLLIYRANRLVDGVPSRFSGSGSGTDYTLTISSLQPEDFAVYYCLQYDEFPYTFGGGTKLEIKR
# notes: Humanized anti-human CD200 mAb with G2/G4 constant region; also called ALXN6000; TPP-309
# Biological target: recombinant human CD200 Fc Chimera (human) (UniProt P41217)
# Experiment: SPR (Biacore), CD200 captured by anti-Fc (human) on CM5, Fab injected
Binder,Kd [nM],koff [s⁻¹],kon [M⁻¹ s⁻¹],fold better affinity than mouse parental c2aB7 (TPP-100 Fab) [fold],fold better affinity than samalizumab (TPP-101 Fab) [fold]
B1,6.01,0.0175,2.91e+06,–,–
B2,0.132,0.00024,1.82e+06,3,45
B3,0.104,0.00022,2.11e+06,3,45
B4,0.407,0.000707,1.74e+06,–,–
B5,0.442,0.000747,1.69e+06,–,–

# Biological target: recombinant human CD200 Fc Chimera (human) (UniProt P41217)
# Experiment: SPR (Biacore 3000), CD200-Fc captured by anti-human Fc on CM5, Fab injected, 1:1 Langmuir
Binder,Kd [nM],koff [s⁻¹],kon [M⁻¹ s⁻¹]
B1,5.53,0.0148,2.67e+06
B6,10.1,0.00704,694000
B7,4.36,0.00487,1.12e+06
B8,0.887,0.00235,2.65e+06
B9,4.04,0.0053,1.31e+06
B10,4.64,0.0041,885000
B11,3.71,0.00368,993000
B12,15.7,0.0146,930000
B13,5.08,0.00625,1.23e+06
B5,0.488,0.000739,1.51e+06

# Biological target: T1, cell surface CD200
# Experiment: flow cytometry, inhibition of labelled CD200R-Fc binding to CD200+ Raji cells; mean ± SD
# Description: Next, the abilities of the newly-engineered anti-CD200 antibodies to antagonize CD200R were compared with that of samalizumab using CD200+ Raji cells. […] Binding of labeled CD200R-Fc was detected by flow cytometry.
row,Binder,EC50 [nM]
1,B14,0.46

# — patent US20210230273A1 (Alexion, published 2021)
